{"source": "paper PMC4114559", "about": "“Pigment Dispersing Factor Regulates Ecdysone Biosynthesis via Bombyx Neuropeptide G Protein Coupled Receptor-B2 in the Prothoracic Glands of Bombyx mori” (PLoS ONE, 2014)", "key": {"[1]": {"system": "ERK", "assay": "p-ERK level in cultured PGs (Western blot)", "type": "cell-based, Bombyx mori", "conditions": "15 min, immunoblotting", "description": "Dissected PGs were rinsed with Grace's insect culture medium (Gibco) and pre-cultured individually in 100 µl medium in 96-well plates (BD Falcon) at 25°C for 30 min. To evaluate the effect of extracellular Ca^2+ on ecdysone biosynthesis, lepidopteran saline and lepidopteran saline using NaCl as a replacement for CaCl2 were used. For the pharmacological analysis, the PG was pre-treated with the inhibitor for 15 min during the pre-culture period. Following this treatment, the PG was cultured in the desired conditions for the desired period (Ecdysone assay: 3 hours; cAMP assay: 30 min; and Protein phosphorylation assay: 15 min). […]\nDissected PGs were pre-cultured in Grace's culture medium for 30 min, then cultured with or without PDF or PTTH for 15 min. The cultured PGs were sonicated in 50 mM Tris-HCl (pH 6.8) with protease inhibitor cocktail (Complete, Roche) and phosphatase inhibitor cocktail (Wako), lysed in 1x SDS sample buffer excluding 2-mercaptoethanol (2ME) and bromophenol blue (BPB), and the protein concentration was measured using the BCA protein assay kit (Pierce). […]\nFigure 4 Signaling pathways involved in PDF-induced ecdysone biosynthesis. […] The transcript levels of nvd, nm-g, spo, phm, dib and sad were quantified with Q-PCR. […] Statistically significant differences were evaluated by Student's t-test (***P<0.001, **P<0.01). […]"}, "[2]": {"system": "nvd, nm-g, spo, phm, dib and sad", "conditions": "ref [8]; cited from earlier work", "excerpt": "Ecdysone is the key regulator of insect growth and development. Ecdysone is synthesized in the PGs and the biosynthesis is intricately regulated by several neuropeptides. To date, four prothoracicotropic peptides (PTTH, FXPRL-amides, insulin and orcokinins) and three prothoracicostatic peptides (PTSP, Bommo-myosuppressin and Bommo-FMRF-amides) have been identified in Bombyx mori. The participation of four cytochrome P450 (CYP) enzymes (CYP307A1, Spook (Spo); CYP306A1, Phantom (Phm); CYP302A1, Disembodied (Dib); CYP315A1, Shadow (Sad)); an oxygenase-like protein, Neverland (Nvd); and a sh ... || Because PDF increased the intracellular cAMP level in PGs, the involvement of PKA in the PDF signaling pathway was expected. […] In mammals, most of the CYP enzymes involved in steroid hormone biosynthesis are transcriptionally regulated. In PTTH- and dbcAMP-induced ecdysone biosynthesis, ecdysone biosynthesi ..."}}}
{"molecule": "PTTH: prothoracicotropic hormone, humoral pathway-mediated tropic hormone (protein, UniProt P17219 116-224, looked up, Prothoracicotropic hormone) Prothoracicotropic hormone: GNIQVENQAIPDPPCTCKYKKEIEDLGENSVPRFIETRNCNKTQQPTCRPPYICKESLYSITILKRRETKSQESLEIPNELKYRWVAESHPVSVACLCTRDYQLRYNNN", "values": [{"measurement": "level of p-ERK", "setting": "[1]", "result": "upregulated"}, {"measurement": "transcript level of ecdysone biosynthetic enzymes (literature)", "setting": "[2]", "result": "upregulated the transcript level of some ecdysone biosynthetic enzymes"}, {"measurement": "transcript levels of spo, dib and phm (literature)", "setting": "[2]", "result": "upregulated by PTTH"}]}
